Numbering of substitutions follows the chain as printed.
Assays:
[1] = tested on: male C57BL/6J mice on CDHFD (liver fibrosis); assay: Choline-deficient high fat diet (CDHFD) model of mouse NASH, liver hydroxyproline content; format: in vivo; settings: 15 mg/kg twice a week i.p., weeks 4 through 12 of CDHFD
Text: The Choline deficient high fat diet (CDHFD) is an established diet-induced model of Non-Alcoholic steatohepatitis (NASH). In this model, male C57BL/6J mice are fed a choline deficient, 0.10% Methionine, high fat diet for 12 weeks. Three to six weeks after the start of the CDHFD, activation of pro-fibrotic processes can be detected through increased expression of α-smooth muscle actin (α-SMA) protein, a marker for activation of hepatic stellate cells, and elevated tissue hydroxyproline content reflecting increased collagen synthesis and deposition (Matsumoto et. al, Int J Exp Pathol. 2013 April; 94(2):93-103).
LTBP complex-specific antibodies were tested for their ability to inhibit and/or reduce the extent of liver fibrosis in mice in the CDHFD model as follows. An outline of the study is shown below in Table 21.
Animals in the test cohorts were on the CDHFD for the duration of the study. A separate cohort of mice (Group 1) were administered a regular chow diet as a study control. Antibodies SR-AB42 and SR-AB31 were administered to mice by intraperitoneal (i.p.) injection beginning at 4 weeks post start of the CDHFD. Animals were dosed at antibody test concentrations 15 mg/kg twice a week (i.e., 30 mg/kg/week) for a test duration of 8 weeks (i.e., weeks 4 through 12). […] Endpoint readout was hydroxyproline content. […]

[2] = target: proTGFβ1 C4S (Homo sapiens, UniProt P01137, C33S); assay: Octet binding of immobilized cycle 2 antibodies to C4S antigen; settings: antibody immobilized (loading sample)
Text: A modified proTGFβ1 complex (proTGFβ1 C4S) in which the cysteine residue at position 4 of the pro-domain has been substituted with a serine residue (described in WO 2014/182676) was used to assess antibody binding to C4S antigen by Octet. Cycle 2 antibodies were immobilized and tested against 3 antigens. As shown in the Tables below, robust antibody binding to LTBP-1 proTGFβ1 antigen (Table 23) and proTGFβ1C4S antigen was observed (Table 24), while binding to LRRC33 proTGFβ1 antigen was not observed (Table 25).

Sequence of proTGFβ1 C4S (P01137 30-390 C33S): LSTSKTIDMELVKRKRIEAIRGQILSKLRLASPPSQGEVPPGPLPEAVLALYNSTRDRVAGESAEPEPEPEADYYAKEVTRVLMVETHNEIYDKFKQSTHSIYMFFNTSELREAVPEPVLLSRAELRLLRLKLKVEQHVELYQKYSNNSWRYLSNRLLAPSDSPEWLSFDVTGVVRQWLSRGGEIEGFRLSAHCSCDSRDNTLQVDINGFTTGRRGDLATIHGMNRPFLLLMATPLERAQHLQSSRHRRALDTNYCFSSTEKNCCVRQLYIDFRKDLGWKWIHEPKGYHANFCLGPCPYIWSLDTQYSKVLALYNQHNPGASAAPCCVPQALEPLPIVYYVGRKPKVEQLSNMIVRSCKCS

B1: SR-AB42: cycle 3 antibody, lineage SR-AB23; CDRs SEQ ID NO: 166-171; HCVR SEQ ID NO: 318, LCVR SEQ ID NO: 319 (antibody, V domains shown)
VH: QVQLVESGGGVVQPGRSLRLSCAASGFTFRSYVMHWVRQAPGKGLEWVAVISHEGSLKYYADSVKGRFTISRDNSKNTLYLQMNSLRAEDTAVYYCARPRIAARRGGFGYWGQGTLVTVSS
VL: NFMLTQPHSVSESPGKTVTISCTRSSGNIDNNYVQWYQQRPGSSPTTVIYEDNQRPSGVPDRFSGSIDSSSNSASLTISGLKTEDEADYYCQSYDYDTQGVVFGGGTKLTVL
Hydroxyproline (HYP) in liver tissue [1]: inhibited the increase in HYP

B2: SR-AB22: second-round (CDR-H3 mutagenesis) antibody, lineage SR-AB14; CDRs SEQ ID NO: 108-113 (antibody, V domains shown)
VH: B1 VH with R98V
VL: B1 VL with Y96S, T98N
Response, binding to human TGFb1 C4S [2]: 0.2937 nm

B3: SR-AB23: second-round (CDR-H3 mutagenesis) antibody, lineage SR-AB14; CDRs SEQ ID NO: 116-121 (antibody, V domains shown)
VH: B1 VH
VL: B1 VL with Y96S, T98N
Response, binding to human TGFb1 C4S [2]: 0.2263 nm

From patent US11214614B2, “LTBP complex-specific inhibitors of TGFβ and uses thereof” (Scholar Rock, Inc., priority 2019, dated 2022)
